In experiment [1] the target is Human neonatal receptor (FcRn) (human, UniProt P55899 24-297, limits assumed). Nature of the experiment: SPR (BIACore), low density FcRn biosensor chip, three runs of five dilutions. For orientation: SPR reads the build-up and loss of mass on a sensor chip optically.
Experiment [2] deals with T1, TROP-2 (EGP-1), human, on tumor cell lines (human, UniProt P09758 27-323).
T1 construct: whole, on cells; 36-kDa cell-surface glycoprotein; also called epithelial glycoprotein-1
T1 sequence (looked up): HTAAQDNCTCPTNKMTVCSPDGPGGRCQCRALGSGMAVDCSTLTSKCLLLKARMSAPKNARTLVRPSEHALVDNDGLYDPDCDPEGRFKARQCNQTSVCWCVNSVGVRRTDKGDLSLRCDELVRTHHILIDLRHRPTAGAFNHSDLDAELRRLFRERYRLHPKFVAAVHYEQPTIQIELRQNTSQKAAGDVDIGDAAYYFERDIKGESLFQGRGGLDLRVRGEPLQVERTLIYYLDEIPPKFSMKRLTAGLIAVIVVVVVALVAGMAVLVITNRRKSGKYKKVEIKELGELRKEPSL
Nature of the experiment: cell binding on TROP-2-positive PC-3 human prostate carcinoma cells, three separate occasions.

This passage reports Kd results from US20180296689A1 (published 2018).

Sequence of Human neonatal receptor (FcRn) (P55899 24-297 limits assumed): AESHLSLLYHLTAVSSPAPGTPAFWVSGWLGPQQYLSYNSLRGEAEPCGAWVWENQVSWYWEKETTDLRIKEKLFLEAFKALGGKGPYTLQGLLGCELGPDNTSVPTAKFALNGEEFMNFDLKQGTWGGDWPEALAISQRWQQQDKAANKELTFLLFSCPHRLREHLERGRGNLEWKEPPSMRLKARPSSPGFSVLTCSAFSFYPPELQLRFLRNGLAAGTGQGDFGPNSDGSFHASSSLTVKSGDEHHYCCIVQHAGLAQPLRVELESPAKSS

B1: hRS7 IgG (humanized anti-TROP-2 IgG1 monoclonal antibody, unconjugated) (antibody)
chain 1: not shown
chain 2: DIQLTQSPSSLSASVGDRVSITCKASQDVSIAVAWYQQKPGKAPKLLIYSASYRYTGVPDRFSGSGSGTDFTLTISSLQPEDFAVYYCQQHYITPLTFGAGTKVEIKRTVAAPSVFIFPPSDEQLKSGTASVVCLLNNFYPREAKVQWKVDNALQSGNSQESVTEQDSKDSTYSLSSTLTLSKADYEKHKVYACEVTHQGLSSPVTKSFNRGEC
Turning to B1, the Kd (usually the free concentration of one partner at which half of the binding sites on the other are occupied at equilibrium, for simple one-to-one binding) in experiment [1] worked out at 192 nM; in experiment [2], 0.564 nM.
